The source of these data is publication PMC7305465, “A Cardiac Troponin T Biosensor Based on Aptamer Self-assembling on Gold”.

This series addresses cardiac troponin T (TnT) (human, UniProt P45379 2-298). In words: electrochemical aptasensor (DPV, ferro/ferricyanide); 0.05-5 ng/mL TnT; LOD 0.01 ng/mL; aptamer on gold; TnT binding at 37 C, ~30 min, working pH 7.4; aptamer immobilized from 10 mM phosphate, 5 mM NaCl, 2 mM KCl, 1 mM MgCl2, pH 7.4; DPV in 20 mM Tris-HCl, 0.5 M KCl, 0.5 M ferro/ferricyanide. Conditions: protein: commercial.

B1: TnT aptamer (structured_DNA)
DNA: CGTGCAGTACGCCAACCTTTCTCATGCGCTGCCCCTCTTA
modifications: 5'-SH-(CH2)6 thiol
On to B1, for which the binding result is “binds”.
